Test results published in US20030199036.

Target: ubiquitin (in vitro thiol-ubiquitination experiment, source not stated)

B1: human pub2 (protein)
chain: MERPYTFKDFLLRPRSHKSRVKGFLRLKMAYMPKNGGQDEENSDQRDDMEHGWEVVDSNDSASQHQEELPPPPLPPGWEEKVDNLGRTYYVNHNNRTTQWHRPSLMDVSSESDNNIRQINQEAAHRRFRSRRHISEDLEPEPSEGGDVPEPWETISEEVNIAGDSLGLALPPPPVSPGSRTSPQELSEELSRRLQITPDSNGEQFSSLIQREPSSRLRSCSVTDAVAEQGHLPPPSVAYVHTTPGLPSGWEERKDAKGRTYYVNHNNRTTTWTRPIMQLAEDGASGSATNSNNHLIEPQIRRPRSLSSPTVTLSAPLEGAKDSPVRRAVKDTLSNPQSPQPSPYNSPKPQHKVTQSFLPPGWEMRIAPNGRPFFIDHNTKTTTWEDPRLKFPVHMRSKTSLNPNDLGPLPPGWEERIHLDGRTFYIDHNSKITQWEDPRLQNPAITGPAVPYSREFKQKYDYFRKKLKKPADIPNRFEMKLHRNNIFEESYRRIMSVKRPDVLKARLWIEFESEKGLDYGGVAREWFFLLSKEMFNPYYGLFEYSATDNYTLQINPNSGLCNEDHLSYFTFIGRVAGLAVFHGKLLDGFFIRPFYKMMLGKQITLNDMESVDSEYYNSLKWILENDPTELDLMFCIDEENFGQTYQVDLKPNGSEIMVTNENKREYIDLVIQWRFVNRVQKQMNAFLEGFTELLPIDLIKIFDENELELLMCGLGDVDVNDWRQHSIYKNGYCPNHPVIQWFWKAVLLMDAEKRIRLLQFVTGTSRVPMNGFAELYGSNGPQLFTIEQWGSPEKLPRAHTCFNRLDLPPYETFEDLREKLLMAVENAQGFEGVD
- thiol-ubiquitination in vitro: both h-pub1 and h-pub2 can become thiol-ubiquitinated in vitro
